The assay addresses T1, Pa-aIF2γ (γ-subunit of archaeal translation initiation factor 2 from Pyrococcus abyssi), native version (Pyrococcus abyssi, UniProt Q9V1G0 1-411).
T1 construct: aIF2 γ-subunit from Pyrococcus abyssi, native (untagged) version; Stood in the assay as part of the aIF2 heterotrimer with GDPNP and Met-tRNA; The deposited models use the S. solfataricus ternary complex (PDB 3V11) as the fitted component; source: cells overproducing the subunit, mixed with cells overproducing α and β; heterotrimer purified (heating at 80 °C, Q-Hiload, S-Hiload, Superdex 200)
T1 sequence (looked up): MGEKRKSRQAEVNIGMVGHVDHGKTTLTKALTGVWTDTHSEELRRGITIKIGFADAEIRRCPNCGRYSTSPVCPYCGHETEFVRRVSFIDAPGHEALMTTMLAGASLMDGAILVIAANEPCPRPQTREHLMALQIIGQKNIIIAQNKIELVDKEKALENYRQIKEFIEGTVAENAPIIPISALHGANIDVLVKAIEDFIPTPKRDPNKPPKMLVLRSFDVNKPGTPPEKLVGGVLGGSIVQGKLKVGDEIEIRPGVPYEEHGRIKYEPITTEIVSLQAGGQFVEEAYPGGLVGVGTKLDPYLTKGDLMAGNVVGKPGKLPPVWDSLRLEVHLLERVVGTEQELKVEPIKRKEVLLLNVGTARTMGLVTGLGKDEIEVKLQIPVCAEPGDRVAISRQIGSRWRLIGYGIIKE
Briefly: cryo-EM structure; full 30S initiation complex (Pa-30S, synthetic mRNA, Met-tRNAfMet A1-U72, GDPNP, Pa-aIF1, Pa-aIF1A, Pa-aIF2) assembled at 51 °C in IC buffer (10 mM Hepes pH 7.5, 100 mM NH4Cl, 10 mM magnesium acetate, 3 mM 2-mercaptoethanol), purified on Talon; class IC0-P_(REMOTE), tRNA out of the P site, 5.34 Å overall resolution; known structures of homologous components fitted. The conditions noted are these: both partners purified.

B1: Pa-aIF2α (α-subunit of archaeal translation initiation factor 2 from Pyrococcus abyssi), N-terminally tagged version (natural protein, UniProt Q9V0E4 1-275, looked up)
chain: MPRRAREYPEEGEFVVATVKRIHNYGAFLELDEYPGKEAFMHISEVASTWVRNIRDYLKEGQKVVAKVIRVDPRKGHIDLSLRRVTQQQRKAKLQEFKRAQKAENLLKLAAEKLGKDFETAWREVWVPLEEEWGEVYAAFEDAAKDGIDVLKGHVPDEWLPVLKEIIDNYVEVPTVTIDAEFEITVPKPNGVEIIKEALIRARDRANKEKDVEVKFTYLGAPRYRIDITAPDYYKAEEVLESIAEEILRVIKEAGGEATLLRKEKRIKKVKKRKK
notes: aIF2 α-subunit from Pyrococcus abyssi, N-terminally tagged version; domains 1 and 2 (aIF2α-D12) and domain 3 (aIF2α-D3); the complex was purified on a Talon column by it; Stood in the assay as part of the aIF2 heterotrimer; source: cells overproducing the subunit, mixed with cells overproducing β and γ; heterotrimer purified (heating at 80 °C, Q-Hiload, S-Hiload, Superdex 200)
Take B1: the binding result is “binds”.

Values taken from PMC5103072, “Cryo-EM study of start codon selection during archaeal translation initiation” (Nature Communications, 2016).
